The Kd is the constant that tells how readily two partners part at equilibrium. A higher Kd goes with lower affinity. Usually koff stands for a measure of how fast the partners let go of each other. By kon is commonly meant the second-order rate constant of association. Read a high kon as fast association.

The experiment deals with SARS-CoV-2 S trimer (SARS-CoV-2) (UniProt P0DTC2). In words: SPR. Background: Surface plasmon resonance follows binding to a sensor surface in real time, without labels.
Consider “Lentil lectin derived from Lens culinaris (natural protein)”, for which the Kd was 8.67 nM, the koff was 0.000919 s⁻¹ and the kon turned out to be 106000 M⁻¹ s⁻¹.

For the substance “erythroagglutinin PHA-E from Phaseolus vulgaris (red kidney bean) (from UniProt P05088 22-275) (natural protein)”, the Kd came out at 160 nM, the koff stood at 0.00331 s⁻¹ and the kon was found to be 20700 M⁻¹ s⁻¹.

“lectin from Datura stramonium (jimson weed, thorn apple) (natural protein)”: the Kd is 0.823 nM, the koff was 0.00144 s⁻¹ and the kon is 1.75e+06 M⁻¹ s⁻¹.

“lectin from Galanthus nivalis (snowdrop) (natural protein)” returned a Kd of 1.53 nM, a koff of 0.00121 s⁻¹ and a kon of 792000 M⁻¹ s⁻¹.

“leucoagglutinin PHA-L from Phaseolus vulgaris (red kidney bean) (from UniProt P05087 21-272) (natural protein)” displayed a Kd of 37.6 nM, a koff of 0.00262 s⁻¹ and a kon of 69700 M⁻¹ s⁻¹.

In turn, “phytohaemagglutinin PHA-M from Phaseolus vulgaris (red kidney bean) (natural protein)” displayed a Kd of 2480 nM, an off-rate (koff) of 0.0196 s⁻¹ and a kon of 7890 M⁻¹ s⁻¹.

Consider “phytohaemagglutinin PHA-P from Phaseolus vulgaris (red kidney bean) (natural protein)”, for which the Kd was found to be 32.5 nM, the koff came out at 0.00501 s⁻¹ and the kon is 154000 M⁻¹ s⁻¹.

The substance “sambucus sieboldiana lectin (natural protein)” registered a Kd of 31.5 nM, a koff of 0.000886 s⁻¹ and a kon of 28100 M⁻¹ s⁻¹.

In turn, “succinyl-concanavalin A (natural protein)” showed a Kd of 201000 nM, a koff of 0.00148 s⁻¹ and a kon of 7.37 M⁻¹ s⁻¹.

Values taken from article PMC8330776.
